The IC50 is the concentration that inhibits the measured activity by half. Low values mean greater potency, high ones weaker potency. The term Kd denotes the constant that tells how readily two partners part at equilibrium.

Experiment [1] deals with HLA-A*11:01. As to the kind of experiment: IEDB peptide-MHC binding, purified MHC/competitive/fluorescence; ≥ and ≤ were set here for values at or beyond the usual limits of such assays.
Experiment [2] deals with HLA-A*31:01. As to the kind of experiment: IEDB peptide-MHC binding, purified MHC/competitive/fluorescence; filed as Kd, often an IC50 or EC50 that approximates it; ≥ and ≤ were set here for values at or beyond the usual limits of such assays.
In experiment [3] the target is HLA-A*03:01. As to the kind of experiment: IEDB peptide-MHC binding, purified MHC/direct/fluorescence; filed as Kd, often an IC50 or EC50 that approximates it; ≥ and ≤ were set here for values at or beyond the usual limits of such assays.
Experiment [4] concerns the target HLA-A*11:01. The experiment is described as above.
The target in experiment [5] is HLA-B*58:01. As to the kind of experiment: IEDB peptide-MHC binding, purified MHC/competitive/radioactivity; filed as Kd, often an IC50 or EC50 that approximates it; ≥ and ≤ were set here for values at or beyond the usual limits of such assays.
For experiment [6], the target named is HLA-B*57:01. As to the kind of experiment: IEDB peptide-MHC binding, purified MHC/direct/fluorescence; filed as Kd, often an IC50 or EC50 that approximates it; ≥ and ≤ were set here for values at or beyond the usual limits of such assays.
The target in experiment [7] is HLA-B*58:01. Described as above.
Experiment [8] deals with HLA-B*15:17. Described as above.
Experiment [9] addresses HLA-A*24:02. As to the kind of experiment: IEDB peptide-MHC binding, purified MHC/competitive/radioactivity; filed as Kd, often an IC50 or EC50 that approximates it; ≥ and ≤ were set here for values at or beyond the usual limits of such assays. The note with it: source organism: Dengue virus 2 Jamaica/1409/1983.
Experiment [10] concerns the target HLA-A*23:01. The description is as above. The note with it: source organism: Dengue virus 2 Jamaica/1409/1983.
For experiment [11], the target named is HLA-A*02:01. As to the kind of experiment: IEDB peptide-MHC binding, purified MHC/competitive/fluorescence; ≥ and ≤ were set here for values at or beyond the usual limits of such assays. The note with it: source organism: Zaire ebolavirus.
The target in experiment [12] is HLA-B*57:01. As to the kind of experiment: IEDB peptide-MHC binding, purified MHC/competitive/radioactivity; filed as Kd, often an IC50 or EC50 that approximates it; ≥ and ≤ were set here for values at or beyond the usual limits of such assays.
Experiment [13] deals with HLA-A*31:01. The description is as above. The note with it: source organism: Dengue virus 2 Jamaica/1409/1983.
In experiment [14] the target is HLA-A*68:01. The experiment is described as above. The note with it: source organism: Dengue virus 2 Jamaica/1409/1983.
The target in experiment [15] is HLA-B*53:01. The description is as above. The note with it: source organism: Dengue virus 2 Jamaica/1409/1983.
The target in experiment [16] is HLA-A*68:02. As to the kind of experiment: IEDB peptide-MHC binding, purified MHC/competitive/fluorescence; filed as Kd, often an IC50 or EC50 that approximates it; ≥ and ≤ were set here for values at or beyond the usual limits of such assays. The note with it: source organism: Toxoplasma gondii.
The target in experiment [17] is HLA-A*68:02. As to the kind of experiment: IEDB peptide-MHC binding, purified MHC/direct/fluorescence; filed as Kd, often an IC50 or EC50 that approximates it; ≥ and ≤ were set here for values at or beyond the usual limits of such assays. The note with it: source organism: Camelpox virus M-96.
In experiment [18] the target is HLA-B*44:02. The experiment is described as above. The note with it: source organism: Camelpox virus M-96.
Experiment [19] concerns the target HLA-B*07:02. The description is as above. The note with it: source organism: Camelpox virus M-96.
Experiment [20] has as its target HLA-A*31:01. The description is as above. The note with it: source organism: Camelpox virus M-96.
Experiment [21] concerns the target HLA-B*27:05. The experiment is described as above. The note with it: source organism: Camelpox virus M-96.
In experiment [22] the target is HLA-A*69:01. The description is as above. The note with it: source organism: Camelpox virus M-96.
The target in experiment [23] is HLA-B*40:01. The description is as above. The note with it: source organism: Camelpox virus M-96.
Experiment [24] deals with HLA-A*01:01. The experiment is described as above. The note with it: source organism: Camelpox virus M-96.
In experiment [25] the target is HLA-B*18:01. The description is as above. The note with it: source organism: Camelpox virus M-96.
Experiment [26] deals with HLA-A*02:01. The experiment is described as above. The note with it: source organism: Camelpox virus M-96.
The target in experiment [27] is HLA-B*48:01. The experiment is described as above. The note with it: source organism: Camelpox virus M-96.
[28] abbreviates: source organism: Salmonella enterica.
[29] abbreviates: source organism: Lassa virus GA391.
Where [30] appears, read: source organism: Mammarenavirus lassaense.
[31] abbreviates: source organism: West Nile virus.
The mark [32] stands for this setting: source organism: Giardia lamblia ATCC 50803.
Setting [33] is: source organism: Coxiella burnetii.
Where [34] appears, read: source organism: Dengue virus 2 Jamaica/1409/1983.
The mark [35] stands for this setting: source organism: Zaire ebolavirus.
[36] abbreviates: source organism: Rickettsia prowazekii.
[37] abbreviates: source organism: Dengue virus 4 Philippines/H241/1956.
Setting [38] is: source organism: Camelpox virus M-96.

In turn, DAASSRITK displayed an IC50 in [1] (source organism: Sudan ebolavirus) of at least 121000 nM.

Turning to IVYLIDCER, the Kd in experiment [2] (source organism: Salmonella enterica subsp. arizonae) is 88.3 nM; in [3] (setting [28]) it was 939 nM; in experiment [4] (setting [28]), at least 20000 nM.

As to MTMPLSCTK, the Kd turned out to be 671 nM in [2] (setting [29]), 622 nM in experiment [3] (setting [30]) and 2.3 nM in [4] (setting [30]).

Turning to KAAVEDEEFW, the Kd in [5] (source organism: Dengue virus 3 Sri Lanka/1266/2000) turned out to be 11.4 nM.

RLCYGGPWK: the results for the equilibrium dissociation constant (Kd) in experiment [2] (setting [31]), in [3] (setting [31]) and in [4] (setting [31]) were at least 20000 nM, 517 nM and 358 nM, respectively.

With LINDQLIMK, the Kd in experiment [2] (setting [29]) was at least 20000 nM; in [3] (setting [30]) it was at least 20000 nM; in [4] (setting [30]), 285 nM.

With KAMSTPFSL, the Kd in experiment [6] (setting [32]) is 84.9 nM; in [7] (setting [32]) it was 15.3 nM; in experiment [8] (setting [32]), 1.3 nM.

With RLSAAIGKAW, the Kd in experiment [5] (source organism: Dengue virus 1 Singapore/S275/1990) was 6.2 nM.

As for HSGDSSCAF, the Kd in [6] (setting [33]) was at least 20000 nM; in [7] (setting [33]), 750 nM; in experiment [8] (setting [33]), 252 nM.

With TWSIHAKHEW, the Kd in experiment [9] amounted to 39.9 nM; in experiment [5] (setting [34]) it was 14.8 nM; in [10] it was 1950 nM.

As to NTIAGVAGL, the IC50 in [11] was 32000 nM; in experiment [1] (setting [35]), at least 144000 nM.

ASSMVNGVVR: the Kd in [12] (setting [34]) was 1400 nM; in [13], at least 44100 nM; in experiment [5] (setting [34]), 2060 nM; in experiment [14], 47.7 nM.

Regarding AVSSGKNIK, the IC50 in experiment [11] was at least 164000 nM; in experiment [1] (setting [35]) it was 55300 nM.

On to STYGISEDL, for which the results for the dissociation constant (Kd) in [6] (setting [36]), in [7] (setting [36]) and in experiment [8] (setting [36]) were at least 20000 nM, at least 20000 nM and 256 nM, respectively.

For the sequence LSSTRVPNYN, the results for the dissociation constant (Kd) in experiment [12] (setting [37]) and in experiment [5] (setting [37]) were 5970 nM and 202 nM, respectively.

Turning to EAVEDSRFW, the Kd in experiment [12] (setting [34]) was 22.2 nM; in experiment [15], 13 nM.

HNFRAPAPV yielded a Kd in experiment [16] of at most 0.1 nM.

As to YERGNIIIF, the dissociation constant Kd in experiment [17], in [18], in experiment [19], in experiment [6] (setting [38]), in experiment [20] and in experiment [7] (setting [38]) was at least 20000 nM throughout. Besides, the Kd is at least 20000 nM in [21]; at least 20000 nM in experiment [22]; at least 20000 nM in [8] (setting [38]); 154 nM in experiment [23]; at least 20000 nM in experiment [24]; 31.9 nM in experiment [25]. Also, the equilibrium dissociation constant (Kd) in experiment [26], in experiment [4] (setting [38]) and in [27] was at least 20000 nM in each case.

(Values after the Immune Epitope Database (IEDB).)
